± gives the standard deviation of the averaged measurements.
Test system: Saccharomyces cerevisiae
Experiment: protein stability index of tFT-peptide fusion (C-terminal peptide) (PSI (0-1 scale)); higher = more stable (slower turnover)
Details: genetic background: wild type; temperature: 30 C
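Note: PSI is a weighted mean of sequencing reads over stability bins, variants kept only with over 10 reads, mCherry proximal and sfGFP distal, peptide attached via GGGS linker.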

In order of falling protein stability index:
1. MGIKSCSSTCVT  0.857 ± 0.2
2. LSLHCIYQQIFR  0.822 ± 0.12
3. LRPLPPPAPCKF  0.774 ± 0.04
4. LSPCSDFSTFDA  0.771 ± 0.12
5. MCWFDVSEWGLG  0.754 ± 0.091
6. LVHHPCNTPRVP  0.749 ± 0.018
7. LRSGSLVSLPPL  0.747 ± 0.1
8. LWDQFAVSCFGG  0.745 ± 0.016
9. MRPRTSKKPQLE  0.744 ± 0.044
10. LSLASTGVDSGG  0.743 ± 0.03
11. LSTCHSPSLPAT  0.739 ± 0.049
12. LSISGSVHILKD  0.733 ± 0.024
13. MINYGLARKKAR  0.733 ± 0.02
14. LSPPPPRPTLQF  0.731 ± 0.0092
15. MFVRRTDRGGIV  0.7312 ± 0.0069
16. LSGVRFDSVFEH  0.729 ± 0.016
17. LRRLSTGTLSIL  0.724 ± 0.057
18. LSPSSSLTYLSF  0.724 ± 0.07
19. LTSATSSGPPHP  0.7232 ± 0.0029
20. MGCSARLPLLSS  0.7215 ± 0.0016
21. LYVIGGTDLVGG  0.72 ± 0.04
22. MKKKTTKTKIKK  0.7205 ± 0.0051
23. LVGWVCRERELG  0.718 ± 0.06
24. LSRPPASPPHPP  0.71468 ± 0.00055
25. MPTSYDGCDRGH  0.713 ± 0.011
26. LVFLRDFFSLFS  0.71 ± 0.017
27. LVIKNVWHESTY  0.709 ± 0.054
28. MGTRRVGRQGWG  0.708 ± 0.031
29. MLGGGGGVRVLG  0.706 ± 0.011
30. LSRTPLPLPPPS  0.705 ± 0.019
31. LWGFVEAIGSVL  0.705 ± 0.18
32. LRLCSLSLPSLP  0.704 ± 0.026
33. LSVPVGIRPGRC  0.702 ± 0.018
34. LVVLGVRGGGGG  0.701 ± 0.047
35. LSRLPPTLPRTP  0.699 ± 0.18
36. MCNPAYVTSGVI  0.6987 ± 0.0054
37. MRKGKGGGPRRR  0.699 ± 0.023
38. LWGAGAGPEDVG  0.6983 ± 0.0028
39. LSPVRRAPCPLG  0.6905 ± 0.0019
40. LRTVSPPSASPP  0.689 ± 0.014
41. LSTPPLPPPPPP  0.689 ± 0.058
42. LYPRLAPPTPPS  0.686 ± 0.026
43. MCPRFCPPLRSF  0.686 ± 0.084
44. LSSLLPFPPLPC  0.685 ± 0.082
45. LWGAIGHGNAGP  0.684 ± 0.029
46. LVFYSSLPNFSR  0.6815 ± 0.0024
47. LRSARPALLCTP  0.678 ± 0.037
48. MRRKKSGPEYQR  0.678 ± 0.059
49. LSTHAPPTRLRL  0.677 ± 0.016
50. LRPRRCWNQWDM  0.675 ± 0.048
51. LTLPPRPPSPPS  0.675 ± 0.08
52. LRQALGRSEEPQ  0.6728 ± 0.0065
53. LYTTLCLRSPPH  0.671 ± 0.026
54. LTVVNFFPLGSP  0.67 ± 0.064
55. LSDSSDSTLGAI  0.667 ± 0.029
56. LSPLTPAPLPPP  0.6675 ± 0.0058
57. LRTPNIYLSFSP  0.666 ± 0.1
58. MRCQFDGAVGVC  0.663 ± 0.074
59. LVFVPTLFPPPG  0.662 ± 0.053
60. LRLGRDLMGEGV  0.661 ± 0.072
61. LSFGPISGTPFR  0.661 ± 0.048
62. LVLFSRCSPFFL  0.659 ± 0.024
63. LSVGLVPFRWRV  0.6584 ± 0.0017
64. LWGGGVGRVRGV  0.658 ± 0.022
65. MKKIGNKLKKEK  0.657 ± 0.099
66. LSPLPRLQPASP  0.655 ± 0.071
67. LSGNLLLSSLLQ  0.654 ± 0.049
68. LWRSRSCSGHSF  0.651 ± 0.053
69. LVSGRRWMLGSG  0.6451 ± 0.0023
70. LSLPSLLLRLSL  0.644 ± 0.023
71. LRRMQGTGCPLP  0.643 ± 0.035
72. LYDCQHTFILSR  0.643 ± 0.047
73. LWLPSTSLIPLI  0.641 ± 0.018
74. LSSRSDVLTYFV  0.639 ± 0.022
75. LYHCFRCYYMPW  0.637 ± 0.033
76. LYIHFIRSYPTI  0.6354 ± 0.0036
77. LYDAALHTKIFR  0.634 ± 0.012
78. LVDKGSADVLDD  0.632 ± 0.048
79. LVGRRGVVGIVP  0.63 ± 0.075
80. LSGLFMAARIFI  0.627 ± 0.06
81. LVVALGFDDRAC  0.623 ± 0.027
82. MLYFSGLQVTIL  0.622 ± 0.0075
83. MGGYLFLHVGYV  0.614 ± 0.062
84. MGGGGGLGGGDG  0.613 ± 0.072
85. LWGMSDQGGGFR  0.611 ± 0.083
86. LRPILLSWFRKS  0.61 ± 0.039
87. LRPLPSPPPSLH  0.603 ± 0.0066
88. MGDGRRMDGVWG  0.6 ± 0.03
89. LSWDVWWYFLSV  0.594 ± 0.0063
90. LSPSPTSHSRLL  0.589 ± 0.024
91. LVKLGSTLSGVG  0.582 ± 0.026
92. LVSEGKRLDVVF  0.581 ± 0.076
93. LRRKTIEVSGLA  0.573 ± 0.026
94. LSVAFFILRVPL  0.573 ± 0.071
95. LYIYSPFGLFAF  0.562 ± 0.0082
96. LSVNAGWLQLCA  0.561 ± 0.018
97. LVLVASVGVGRV  0.556 ± 0.057
98. LRVVCVVGQRSL  0.554 ± 0.0094
99. LVSQLLALCLSV  0.5358 ± 0.00089
100. LVFSSVVISCDI  0.528 ± 0.0092
101. LRLLLLVLPTCF  0.527 ± 0.02

From the supplement of paper PMC10724198
